Assay results taken from the nanobody polyreactivity screen of Harvey et al. (2022).

test: yeast display, Sf9 membrane polyspecificity reagent, FACS + sequencing; frameworks hold sequencing errors
In short: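 Nanobodies came from a synthetic yeast display library in Saccharomyces cerevisiae BJ5465, induced with galactose for 36–48 hours and stained for 1 hour at 4 °C with 10% biotinylated, detergent-solubilized Sf9 membrane reagent. Cells were enriched on streptavidin microbeads and then FACS-sorted, with low and high (top ~1%) gates set on anti-HA fluorescence for expression and streptavidin fluorescence for reagent binding. Each polyreactivity label reflects the gate a clone came from. Genes were amplified by colony PCR, sequenced by MiSeq 2 × 250 and filtered by CDR length.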

Q: With “QVQLVESGGGLVQAGGSLRLSCAASGFIFVTYAMGWYRQAPGKETELVAAINNSGGTTYYADSVKGRFTISRDNAKNTVYLQMNSLKPEDTAVYFCNKRYGAETAHREFDYWGQGTQVTVSS” as the sequence, how does the “polyreactivity (PSR sort gate)” value read?
A: The value was “low polyreactivity”.

Q: With “QVQLVESGGGLVQAGGSLRLTCAASGGILGYYAMGWYRQEQGKERELVAAISSSVGRTYYADSVKGRFTISRDNAKNSVFLQMNSLKPEDTAVYYCNKDIGRSYNYWGQGTQVTVSS” as the sequence, how does the “polyreactivity (PSR sort gate)” value read?
A: Its value is “high polyreactivity”.

Q: With “QVQLVESGGGLVQAGGSLRLSCAASGFIFPLYAMGWYRQAPGKERELVAAITWRGDTTSYADSVKGRFTISRDNAKNTVYLQMNSLKPEDTAVYYCAAVRYPSGYDYWGQGTQVTVSS” as the sequence, how does the “polyreactivity (PSR sort gate)” value read?
A: Its value is “high polyreactivity”.

Q: With “QVKLVESGGGLVQAGGSLRLSCAASGFTIRSYFIVWNRQAPGKERELVAAITRRGGRTYYADSVKGRFTISRDNAKNTVFLQMNSLKPEDTAVYYCAAGPYLVDVDYWGQGTQVTVSS” as the sequence, how does the “polyreactivity (PSR sort gate)” value read?
A: Its value is “high polyreactivity”.

Q: Which “polyreactivity (PSR sort gate)” value does the source give for “QVQLVESGGGLVQAGGSRRLTCAGSGYIFRPYAKRWYRQAPGKERELVAVISSGGSTYYADSVKGRFTISRDNEKNTVYFQMNSLKPQDTAVYYCKRTLWSMGGTTYEYWGQGTQVTVSS” here?
A: The value was “low polyreactivity”.

Q: With “QVQLVESGAGLVQAGGSLRLSCAASGSTFYMYAMGWDRTATGKERELLADISLSGVSTYYADSVKGRFTFSRDNAKHTVYLQMNSLKPEDTAVYYCAADVFYPGPWSYEYWGQGTHVTVSS” as the sequence, how does the “polyreactivity (PSR sort gate)” value read?
A: Its value is “low polyreactivity”.

Q: For “QVQLVESGGGLVQAGGSLRLSCAASGSTFVPYAIGWYRQAPGTERELVAAISSRGGRTSYADSVKGRFTISRDNAKNTVYLQMKRLKPEDTAVYYCIALYPGRLTDYSRSKMEYWGQGTQVTVSS”, which “polyreactivity (PSR sort gate)” value is on record?
A: Its value is “high polyreactivity”.

Q: For “QFQLVESGGGLVQAGGSLRLSCAASGTFYPYAMGWYRQAPGKERELVAGITGSGGYTYFADSVKGRFTISRDNAKNTVYLQMNSLKPEDTAVYYCAKRSWIEYDYWGQGTQVTVSS”, which “polyreactivity (PSR sort gate)” value is on record?
A: Its value is “low polyreactivity”.

Q: For “QVQLVESGGGLVQAGGSLRLSCAASGSTFRYYTMGWYRQAPGKERELVAAITWSGGSTYYADSVKGRFTISRDNAKNTVYLQMNSLKPEDTAVYYCAADRYSYGSNGYPRFEYYYWGQGTQVTVSS”, which “polyreactivity (PSR sort gate)” value is on record?
A: Its value is “high polyreactivity”.

Q: With “QVQLVESGGGLVQAGGSLRLSCAASGFIFWYYAMGWSRQAPGKERELVAAISYGGGSTYYADSVKGRFTISRDNAKNTVYLQMNSLKPEDTAVYYCAAAPRWKASRLYYWGQGTQVTVSS” as the sequence, how does the “polyreactivity (PSR sort gate)” value read?
A: Its value is “high polyreactivity”.

Q: Which “polyreactivity (PSR sort gate)” value does the source give for “QVQLVESGGGLVQAGGSLRLSCAASGRTFYDYAMGWYRQAPGKERELVAAITYSGGSTFYADSVKGRFTISRDNAKNTVYLQMNSLKPEDTAVYYCAAEVLLLVGAAEYDYWGQGTQVTVSS” here?
A: Its value is “low polyreactivity”.

Q: For “QVQLVESGGGLVQAGGSLRLSCAGSGFTFSSYTIGWYRQAPGKEREFVASISSGGSTNYADSVKGRFTISRDNAKNTVYLQMNSLKPEDTAVYYCAAGTTGITFFDVGSGYDYWGQGTQVTVSS”, which “polyreactivity (PSR sort gate)” value is on record?
A: The value was “low polyreactivity”.

Q: For “QVQLVESGGGLVQAGGSLRLSCAASGSIFYRNAMGWYRQAPGKERELVAAISARGGRTNYADSVKGRFTISRDNAKNTVYLQMNSLKPEDTAVYYCNTADSWYHRSQAYDYWGQGTQVTVSS”, which “polyreactivity (PSR sort gate)” value is on record?
A: Its value is “high polyreactivity”.

Q: With “RVHLVESGGGLVQAGGSLRLSCAASGRIFDNYVMGWYRQAPGKESELVAAISSGGGTYYADSVKGRFTISRDNAKNTVYLQMKSLKPEDTAVYFCAKRRVFDRSFGRYDYWGQGTQVTVSS” as the sequence, how does the “polyreactivity (PSR sort gate)” value read?
A: Its value is “low polyreactivity”.

Q: For “QVQLVESGGGLVQAGGSLRLSCAASGGTFSTYAMGWYRQAPGKEREFVAAITRSGTSTYYADSVKGRFTISRDNAKNTVYLQMNSLKPEDTAVYYCATGEHFYRKLDYWGQGTQVTVSS”, which “polyreactivity (PSR sort gate)” value is on record?
A: The value was “low polyreactivity”.

Q: Which “polyreactivity (PSR sort gate)” value does the source give for “QVQLVESGGGLVQAGGSLRLSCAASGRIFRINAMGWYRQAPGKERELVASISRRGGNTYYADSVKGRFTISRDNAKNTVYLQMNSLKPEDTAVYYCAADTNQERTFYYWGQGTQVTVSS” here?
A: Its value is “low polyreactivity”.

Q: Which “polyreactivity (PSR sort gate)” value does the source give for “QVQLVDSGGGLVQAGGSLSLSCAASGRTFNYKAMGWYRQAPGKERELVAAISWGGGSTFYADSVKGRFTISRDNAKNTVYLEMNSLKPEDTAVYYCAAYRQYGNRGAYYSWGQGTQVTVSS” here?
A: The value was “low polyreactivity”.

Q: With “QVQLVESGGGLVQAGGSLRLSCAASGLTFRIYAMGWYRQAPGKERQLVAAISYRGGSTYYADSVKGRFTISRDNAKNTVYLQMNSLKPEDTAVYYCAAGFVLNGIRYDYWGQGTQVTVSS” as the sequence, how does the “polyreactivity (PSR sort gate)” value read?
A: The value was “high polyreactivity”.

Q: Which “polyreactivity (PSR sort gate)” value does the source give for “QVQLVESGGGLVQAGGSLRLSCAASGSIFAYYAMGGYRQAPGKERELVAAITSGDSTYYADSVKGRFTISRDNAKNTVYLQMNSLKPEDTAVYYCAADHIWFYFYLYDYWGQGTQVTVSS” here?
A: Its value is “low polyreactivity”.

Q: For “QVQLVESVGGLVQAGGSLRLSCAASGSIFTRNTMGWYRQAPGKERELVAAISGGGSSTYYADSVKGRFTISRDNAKNTVYLQMNSLKPEETAVYYCAASLSRNYGYACYEYWGQGTQVTVSS”, which “polyreactivity (PSR sort gate)” value is on record?
A: The value was “high polyreactivity”.

Q: Which “polyreactivity (PSR sort gate)” value does the source give for “QVHLVESGGGLFQAGGSLRLSFAATGLTFSPYARGWYRHGPGKERELVASITNGGRTYYADSVKGRFTISRDNAKITVYLQMNSLKPEDTAVYYCAAYPRGARRLDYWGQGTQVTVSS” here?
A: The value was “high polyreactivity”.

Q: With “QVQLVESGGGLVQAGGSLRLSCAASGLTFHRYAMGWYRQAPGKERELVADISSGDSTNYADSVKGRFTISRDNAKNTVYLQMNSLKPEDTAVYYCNTDGYIYRYRFDYWGQGTQVTVSS” as the sequence, how does the “polyreactivity (PSR sort gate)” value read?
A: Its value is “low polyreactivity”.

Q: With “QVQLVESGGGLVQAGGSLRLSCAASGSTFDDNALGWYRQAPGKERELVAAISSRGSTYYADSVKGLFTISRDNAKNTVYLQMNSLKPEDTAVYYCAKRTYRYYGLNAYYYWGQGTQVTVSS” as the sequence, how does the “polyreactivity (PSR sort gate)” value read?
A: The value was “high polyreactivity”.

Q: For “QVQLVESGGGLVQAGGSLRLSCAASGSTFDDYAMGWYRQAPGKERELVAAISYSGGSTYYADSVKGRFTISRDNAKNTVYLQMNSLKPEDTAVYYCAADDLYTDYETWWRRGDYCGQGTQVTVSS”, which “polyreactivity (PSR sort gate)” value is on record?
A: The value was “low polyreactivity”.

Q: For “QVQLVESGGGIVQAGGSLRLICAASGFIFEFNVMGWYRQSPGKERQLVAAISRSGGSTYYADSVKGRFTISRDNAKNTVYLQMISLKPEDSAVYYCAARSYRSGTHGYNYWGQGTQVTVSS”, which “polyreactivity (PSR sort gate)” value is on record?
A: Its value is “high polyreactivity”.

Q: With “QVQLVESGGGLVQAGGSLRLSCAASGSTFAIYGMGWYRQAPGKERELVAGITRGGSTNYADSVKGRFTISRDNAKNTVYLQMNSLKPEDTAVYYCNKVQRSTYYNGYDYWGQGTQVTVSS” as the sequence, how does the “polyreactivity (PSR sort gate)” value read?
A: Its value is “high polyreactivity”.

Q: Which “polyreactivity (PSR sort gate)” value does the source give for “QVQLVESGGGLVQAGGSLRLSCAASGFTFIRYAMGWYRPAPGKERELVATITRRGGSTYYADSVKGRFSISRDNAKNTVYLQMNCLKPEDTAVYYCNRDYVTYGKYYYWGQGTQVTVSS” here?
A: The value was “high polyreactivity”.

Q: For “QVQLVESGGGLVQAGGSLRLSCAASGFTFGGYAMGWYRQAPGKERELVAAISSGGSTYYADSVKGRFTISRDNAKNTVYLQMNSLKPEDTAVYYCATDLRRYSYRGGHYYWGQGTQVTVSS”, which “polyreactivity (PSR sort gate)” value is on record?
A: The value was “high polyreactivity”.

Q: For “QVQLVESGGGLVQAGGSLRLSCAASGSTFNVNAMGWYRQAPGKERELVAAISSDGITNYADSVKRRFTISRDNAKNTVYLQMNSLKPEDTAVYYCNADWTDGDWADMDYWGQGTQVTVSS”, which “polyreactivity (PSR sort gate)” value is on record?
A: The value was “low polyreactivity”.

Q: For “QVQLVESGGGLVQAGGSLRLSCAASGSTLDYNDMGWYRQAPGKEREFVAAIRSNDGSTYYADSVKGRFTISRDNAKKTVYLQMNSLKPEDTAVYYCNKDVWDGYDWPEFDYLGQGTQVTVSS”, which “polyreactivity (PSR sort gate)” value is on record?
A: The value was “low polyreactivity”.

Q: For “QVQLVESRGGLVQAGGSLRLSCAASGSTFRYYAMGWYRQAPGKERELVATITARGGSTYADSVKGRFTISRDNAKNTVYLQMNSLKPEDTAVYYCAKRYGRYWDSTYSGDYDYWGQGTQVTVSS”, which “polyreactivity (PSR sort gate)” value is on record?
A: Its value is “high polyreactivity”.

Q: For “QVHLVESGVGLGQAGGSLRLSCAASGSIFYSNAMGWYRPAPGKERELVATITWSGGRTYYADSVKGRFTISRDYAKNTFYLQMHSLKPEDTAVYYCAAVSIYWGHGTQVTVSS”, which “polyreactivity (PSR sort gate)” value is on record?
A: The value was “low polyreactivity”.

Q: Which “polyreactivity (PSR sort gate)” value does the source give for “QVQLQESGGGLVQAGGSLRLSCAASGSISRLDYRGWYRQASGKERELVAAIDNGSTTYYADSVKGRLTISRDNAKYTVYLQMNSLKPEDTAVYFCAAVRGRGGTHAYWGQGTQVTVSG” here?
A: Its value is “low polyreactivity”.

Q: With “QVQLVESGGGLVQAGGSLRLSCAASGSIFVSYAMGWYRQAPGKDRELVAAITSAGTTYYADSVKGRFTISRDNAKNTVYLQMNSLNPEDTAVYYCNTDASFKRTRVSPETEYGYWGQGTQVTVSS” as the sequence, how does the “polyreactivity (PSR sort gate)” value read?
A: The value was “low polyreactivity”.

Q: For “QVQLVESGGGLVQAGGSLRLSCAASGRIFNLYDMGWYRQAPGKERELVAAIRIGDRTYYADSVKGRFTISRDNAKNTVYLQMNSLKPEDTAVYYCNREYLSNRDKRFYYWGQGTQVTVSS”, which “polyreactivity (PSR sort gate)” value is on record?
A: Its value is “low polyreactivity”.

Q: Which “polyreactivity (PSR sort gate)” value does the source give for “QVHLQESGGGLVQAGGSLRLSCAASGTIFRFRNMGWHRQAPGKERELVAGINGGTTTYYADSVIGRFTISRDNAKNTVYLQMNSLKPDDTAVYNCAAGASRLTYYDYWGQGTQVTVSS” here?
A: Its value is “low polyreactivity”.

Q: Which “polyreactivity (PSR sort gate)” value does the source give for “QVQLVESGGGLVQAGGSLRLSCAASGFIFQYYAMGWYRQAPGKERELVAAIRISGGSTYYADSVKGRFTSSRDNAKNTVYLQMNSLKPEDTAVYYCAARQIITKFYTSNGVSSYYWGQGTQVTVSS” here?
A: Its value is “high polyreactivity”.

Q: Which “polyreactivity (PSR sort gate)” value does the source give for “QVQLVESGGGLVQAGGSLRLSCAASVRIFVYNTMGWYRQAPGKERELVAAINYSGGSTYYADSVKGRFTISRDNAKNTVYLQMNSLKPEDTAVYYCAVKLRSRAGTSYGYWGQGTQVTVSS” here?
A: The value was “high polyreactivity”.

Q: For “QVQLVESGAGLVQAGGRLRLSCADSGYIFKSYAIGWYRQAPGKEREFVAAISWSGGSTYADSVKGRFTISRDNAKNTVYLQMNSLKPEDTAVYSCAAVDYYYYGVYSSWYEYWGQGTQVTVSS”, which “polyreactivity (PSR sort gate)” value is on record?
A: Its value is “low polyreactivity”.

Q: Which “polyreactivity (PSR sort gate)” value does the source give for “QVQLVESGGGLVQAGGSLRLSSAASGFIFDGNAMGWYRQAPGKERELVAAIRSGGRTNYADSVKGRFTISRDNAKNTVYLQMNSLKPEDTAVYYCAARSIYPYYYRRDNRYYYWGQGTQVTVSS” here?
A: The value was “high polyreactivity”.

Q: Which “polyreactivity (PSR sort gate)” value does the source give for “QVQLVESGGGLVQAGGSLRLSCAASGRIFRLYVMGWYRQAPGKERELVARIRIRDSNTYYADSVKGRFTISRDNAKHTVYLQMNSLKPEDTAVYYCAVVATYVYSKYDYWGQGTQVTVSS” here?
A: The value was “low polyreactivity”.
